Measurements reported in US20030148958A1 (PROCTER AND GAMBLE, published 2003).
Ends that are not written are not given here.

T1: CRF2R
T1 sequence (Q13324 whole entry, species assumed, looked up): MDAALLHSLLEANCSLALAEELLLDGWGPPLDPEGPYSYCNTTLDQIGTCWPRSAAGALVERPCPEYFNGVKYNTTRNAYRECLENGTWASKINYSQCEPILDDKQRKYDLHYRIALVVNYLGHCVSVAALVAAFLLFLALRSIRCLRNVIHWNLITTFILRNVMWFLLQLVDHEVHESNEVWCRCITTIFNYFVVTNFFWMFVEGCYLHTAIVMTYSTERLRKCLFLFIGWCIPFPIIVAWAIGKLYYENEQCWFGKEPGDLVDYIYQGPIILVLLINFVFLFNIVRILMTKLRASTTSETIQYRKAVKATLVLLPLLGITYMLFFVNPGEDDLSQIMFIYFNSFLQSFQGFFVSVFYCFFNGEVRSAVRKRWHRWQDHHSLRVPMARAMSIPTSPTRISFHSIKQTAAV


biological target: T1, CRF2R; test: cell-based or functional assay
For CRF1R Emax % in this document: reference of the scale not given here.
For CRF2R Emax % in this document: reference of the scale not given here.

CRF2R EC50 [nM]	CRF2R Emax % [%]	Binder
11.7	95.7	DNPSLSIDLPLLLLRTLLELEKTQSQRERAEQNAHIFAHV-NH2 [SEQ ID NO 328]
13.6	96.5	DNPSLSIDLPLFLLRTLLELEKTQSQRERAEQNAIIFASV-NH2 [SEQ ID NO 343]
9.85	100	PSLSIDLPLFLLRTLLELEKTQSQRERAEQNARIFARV-NH2 [SEQ ID NO 331]
17.2	100	DNPSLSIDLPLLLLRTLLELEKTQSQRERAEQNAQIFAHV-NH2 [SEQ ID NO 324]
9.35	81.7	ZGPPISIDLPYHLLRKMIEIEKQEKEKQQAANNALLLAT (C-terminal amide) [SEQ ID NO 315]
100	47.9	DNPSLSIDLPQYLLRTLLELARTQSQRERAEQNAIIFASV-NH2 [SEQ ID NO 339]
23.1	96.5	IVLSLDVPIGLLQKMIEIEKQEKEKQQATTNARILARV-NH2 [SEQ ID NO 322]
33.7	100	DNPSLSIDLPLLLLRTLLELEKTQSQRERAEQNANIFANV-NH2 [SEQ ID NO 326]
19.6	100	DNPSLSIDLPLLLLRTLLELEKTQSQRERAEQNAEIFAEV-NH2 [SEQ ID NO 323]
19.3	77.5	DNPSLSIDLPLLLLRTLLELEKTQSQRERAEQNARIFDRV-NH2 [SEQ ID NO 338]
20.2	92.2	DNPSLSIDLPLQLLRTLLELEKTQSQRERAEQNAIIFASV-NH2 [SEQ ID NO 342]
6	93.7	DNPSLSIDLPLILLRTLLELARTQSQRERAEQNARIFARV-NH2 [SEQ ID NO 330]
28.4	100	DNPSLSIDLPLLLLRTLLELEKTQSQRERAEQNAQIFAQV-NH2 [SEQ ID NO 327]
28.1	91	DNPSLSIDLPLILLRTLLELEKTQSQRERAEQNARIFARV-NH2 [SEQ ID NO 335]
19.1	100	ZGPPISIDLPLQLLRKVIEIEKQEKEKQQATTNARILARV (C-terminal amide) [SEQ ID NO 320]
19.6	86.8	ZGPPISIDLPFQLLRKTIEIEKQEKEKQQATTNARLLDRV (C-terminal amide) [SEQ ID NO 321]
11.7	100	IVLSLDVPIGLLQILLEQEKARAAREQATTNARILARV-NH2 [SEQ ID NO 325]
9.85	96.9	PSLSIDLPLLLLRTLLELEKTQSQRERAEQNARIFARV-NH2 [SEQ ID NO 333]
23.9	86.7	DNPSLSIDLPLILLRTLLELEKTQSQRERAEQNARIFDRV-NH2 [SEQ ID NO 337]

CRF2R EC50 [nM]	CRF2R Emax % [%]	Binder
9.95	100	PSLSIDLPLILLRTLLELEKTQSQRERAEQNARIFARV-NH2 [SEQ ID NO 332]
7.99	100	DNPSLSIDLPLLLLRTLLELARTQSQRERAEQNARIFARV-NH2 [SEQ ID NO 340]
5.82	96.5	ZGPPISIDLPFALLRKMIEIEKQEKEKQQAANNRLLLDTI (C-terminal amide) [SEQ ID NO 307]
5.55	99.9	ZGPPISIDLPYALLRKMIEIEKQEKEKQQAANNRLLLDTI (C-terminal amide) [SEQ ID NO 309]
9.3	88.3	ZGPPISIDLPFFLLRKVIEIEKQEKEKQQAANNALLLATI (C-terminal amide) [SEQ ID NO 317]
11.1	95	ZGPPISIDLPYHLLRKVIEIEKQEKEKQQAANNALLLATI (C-terminal amide) [SEQ ID NO 313]
3.3	72.8	ZGPPISIDLPLALLRKMIEIEKQEKEKQQAANNRLLLDTI (C-terminal amide) [SEQ ID NO 308]
10.3	99.8	ZGPPISIDLPYHLLRKMIEIEKQEKEKQQAANNALLLDTI (C-terminal amide) [SEQ ID NO 314]
10.2	94.5	ZGPPISIDLPFFLLRKVIEIEKQEKEKQQAANNALLLDTI (C-terminal amide) [SEQ ID NO 316]
11.7	100	ZGPPISIDLPYWLLRKVIEIEKQEKEKQQAANNALLLDTI (C-terminal amide) [SEQ ID NO 311]
8.7	87.5	ZGPPISIDLPYWLLRKMIEIEKQEKEKQQAANNALLLDTI (C-terminal amide) [SEQ ID NO 310]
9.95	95.4	ZGPPISIDLPFFLLRKMIEIEKQEKEKQQAANNALLLDTI (C-terminal amide) [SEQ ID NO 318]
14.1	95	ZGPPISIDLPYHLLRKVIEIEKQEKEKQQAANNALLLDTI (C-terminal amide) [SEQ ID NO 312]
8.5	95	ZGPPISIDLPFFLLRKMIEIEKQEKEKQQAANNALLLATI (C-terminal amide) [SEQ ID NO 319]
8.83	95.5	DNPSLSIDLPLLLLRTLLELEKTQSQRERAEQNARIFARV-NH2 [SEQ ID NO 341]
13.2	93.5	DNPSLSIDLPLFLLRTLLELEKTQSQRERAEQNARIFARV-NH2 [SEQ ID NO 334]
17.8	100	DNPSLSIDLPLFLLRTLLELEKTQSQRERAEQNARIFDRV-NH2 [SEQ ID NO 336]
5.15	98.3	DNPSLSIDLPLFLLRTLLELARTQSQRERAEQNARIFARV-NH2 [SEQ ID NO 329]

biological target: CRF1R; test: cell-based or functional assay

CRF1R EC50 [nM]	CRF1R Emax % [%]	Binder
1000	30.7	DNPSLSIDLPLLLLRTLLELEKTQSQRERAEQNAHIFAHV-NH2 [SEQ ID NO 328]
783	62.5	DNPSLSIDLPLFLLRTLLELEKTQSQRERAEQNAIIFASV-NH2 [SEQ ID NO 343]
1000	78.7	PSLSIDLPLFLLRTLLELEKTQSQRERAEQNARIFARV-NH2 [SEQ ID NO 331]
1000	46.6	DNPSLSIDLPLLLLRTLLELEKTQSQRERAEQNAQIFAHV-NH2 [SEQ ID NO 324]
454	100	ZGPPISIDLPYHLLRKMIEIEKQEKEKQQAANNALLLAT (C-terminal amide) [SEQ ID NO 315]
1000	13.2	DNPSLSIDLPQYLLRTLLELARTQSQRERAEQNAIIFASV-NH2 [SEQ ID NO 339]
1000	10.7	IVLSLDVPIGLLQKMIEIEKQEKEKQQATTNARILARV-NH2 [SEQ ID NO 322]
1000	30.1	DNPSLSIDLPLLLLRTLLELEKTQSQRERAEQNANIFANV-NH2 [SEQ ID NO 326]
1000	36.9	DNPSLSIDLPLLLLRTLLELEKTQSQRERAEQNAEIFAEV-NH2 [SEQ ID NO 323]
1000	41.1	DNPSLSIDLPLLLLRTLLELEKTQSQRERAEQNARIFDRV-NH2 [SEQ ID NO 338]
1000	19.6	DNPSLSIDLPLQLLRTLLELEKTQSQRERAEQNAIIFASV-NH2 [SEQ ID NO 342]
1000	86.8	DNPSLSIDLPLILLRTLLELARTQSQRERAEQNARIFARV-NH2 [SEQ ID NO 330]
1000	36.5	DNPSLSIDLPLLLLRTLLELEKTQSQRERAEQNAQIFAQV-NH2 [SEQ ID NO 327]
1000	49.5	DNPSLSIDLPLILLRTLLELEKTQSQRERAEQNARIFARV-NH2 [SEQ ID NO 335]
718	68.8	ZGPPISIDLPLQLLRKVIEIEKQEKEKQQATTNARILARV (C-terminal amide) [SEQ ID NO 320]
1000	33.8	ZGPPISIDLPFQLLRKTIEIEKQEKEKQQATTNARLLDRV (C-terminal amide) [SEQ ID NO 321]
100	5	IVLSLDVPIGLLQILLEQEKARAAREQATTNARILARV-NH2 [SEQ ID NO 325]
1000	43.8	PSLSIDLPLLLLRTLLELEKTQSQRERAEQNARIFARV-NH2 [SEQ ID NO 333]
1000	36.5	DNPSLSIDLPLILLRTLLELEKTQSQRERAEQNARIFDRV-NH2 [SEQ ID NO 337]

CRF1R EC50 [nM]	CRF1R Emax % [%]	Binder
1000	61.3	PSLSIDLPLILLRTLLELEKTQSQRERAEQNARIFARV-NH2 [SEQ ID NO 332]
740	96	DNPSLSIDLPLLLLRTLLELARTQSQRERAEQNARIFARV-NH2 [SEQ ID NO 340]
78.4	92.7	ZGPPISIDLPFALLRKMIEIEKQEKEKQQAANNRLLLDTI (C-terminal amide) [SEQ ID NO 307]
108	96.3	ZGPPISIDLPYALLRKMIEIEKQEKEKQQAANNRLLLDTI (C-terminal amide) [SEQ ID NO 309]
188	100	ZGPPISIDLPFFLLRKVIEIEKQEKEKQQAANNALLLATI (C-terminal amide) [SEQ ID NO 317]
704	87.1	ZGPPISIDLPYHLLRKVIEIEKQEKEKQQAANNALLLATI (C-terminal amide) [SEQ ID NO 313]
63.5	100	ZGPPISIDLPLALLRKMIEIEKQEKEKQQAANNRLLLDTI (C-terminal amide) [SEQ ID NO 308]
978	82.4	ZGPPISIDLPYHLLRKMIEIEKQEKEKQQAANNALLLDTI (C-terminal amide) [SEQ ID NO 314]
222	92.3	ZGPPISIDLPFFLLRKVIEIEKQEKEKQQAANNALLLDTI (C-terminal amide) [SEQ ID NO 316]
1000	29.7	ZGPPISIDLPYWLLRKVIEIEKQEKEKQQAANNALLLDTI (C-terminal amide) [SEQ ID NO 311]
1000	45.3	ZGPPISIDLPYWLLRKMIEIEKQEKEKQQAANNALLLDTI (C-terminal amide) [SEQ ID NO 310]
134	92.8	ZGPPISIDLPFFLLRKMIEIEKQEKEKQQAANNALLLDTI (C-terminal amide) [SEQ ID NO 318]
870	62	ZGPPISIDLPYHLLRKVIEIEKQEKEKQQAANNALLLDTI (C-terminal amide) [SEQ ID NO 312]
106	88.3	ZGPPISIDLPFFLLRKMIEIEKQEKEKQQAANNALLLATI (C-terminal amide) [SEQ ID NO 319]
850	82.3	DNPSLSIDLPLLLLRTLLELEKTQSQRERAEQNARIFARV-NH2 [SEQ ID NO 341]
1000	82.6	DNPSLSIDLPLFLLRTLLELEKTQSQRERAEQNARIFARV-NH2 [SEQ ID NO 334]
1000	59.9	DNPSLSIDLPLFLLRTLLELEKTQSQRERAEQNARIFDRV-NH2 [SEQ ID NO 336]
1000	98.4	DNPSLSIDLPLFLLRTLLELARTQSQRERAEQNARIFARV-NH2 [SEQ ID NO 329]
